The series is described as follows: yeast display, Sf9 membrane polyspecificity reagent, FACS + sequencing; frameworks hold sequencing errors. The gist of the method: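 Galactose-induced (36–48 hours) yeast carrying a synthetic nanobody display library were exposed to 10% biotinylated, detergent-solubilized Sf9 membrane reagent at 4 °C for 1 hour. FACS followed streptavidin microbead enrichment, using low and high (top ~1%) gates for expression (anti-HA) and reagent binding (streptavidin). Colony PCR, MiSeq 2 × 250 sequencing and CDR-length filtering followed. Labels for polyreactivity reflect the gate of origin.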
As for “QVQHVESGGGLVQEGGSLRLSCGASGRTFSYYAMGCYRQPPGKEREMVAAIRATGTTTYYAVSVKGRFTISRDNAKITFYFQMNSLKQDDTAVYYCAARGSRYRSSGYEEWGQGTQVTVSS”, the “polyreactivity (PSR sort gate)” value is “high polyreactivity”.
Regarding “QVQHVESGGGLVQSGGSLRLSCAASGRIFDYNAMGWSRQAPGKERELVAAITSSSGSSTYYADSVKGRFTISRDNAKNTVYLQMNSLIPVDTAVYYCNAGGSDIYLSPFDYWGQGTQVTVSS”, the “polyreactivity (PSR sort gate)” value was “low polyreactivity”.
Next, “QVQHVESGGGVVQAGGSLRFSCAASGRIFYRYAMGWYRPAPGKERELVAAITIGGRTNYADSVKGRFTISRDNAKTTVYLQMNSLKPEDTAVYYCAVVLYTRYPPRVRYYYWGQGTQVTVSS”: “high polyreactivity”; “QVQHVESGRGLVQAGGSLRLSCAASGRIFNPYAMGRYRQAPGKERELVAAISRGGRTYYADSVKGRFTISRDNAKNTVYLQMNSLKPEDTAVYYCNAGRGLREDDYWGQGTQVTVSS”: “low polyreactivity”.
“QVQHVESLGGLVQAGGSLRLSCAASGRTFFGYAMGWYRQEPGKERELVAAISSGGRTYFADSVKGRFTMSRDNAKNTVFLQMNSLKPEDTAVYYCAAQYSARYYYWGLGTQVTVSS”: the “polyreactivity (PSR sort gate)” value is “high polyreactivity”.
As for “QVQHVESRGGLVQAGGSLRLSCAASGFTFSRNAMGRYRQAPGKESDLVAAIDSGGSTDYADSVKGRFTNSRDNAKNTVYLQMNSLKPADTAVYYCAKASSATRYVQLRQDYDYWGQGTKVTVSS”, the “polyreactivity (PSR sort gate)” value is listed as “low polyreactivity”.
Consider “QVQHVESRGGLVQAGGSLRLSCAASGRIFGTYGMGRYRQAPGKERELVAAINWRGGSTYYADSVKGRFTISRDNAKNTVYLQMNSLIPEDTAVYYCNARLYRKRLGYWGQGTQVTVSS”, for which the “polyreactivity (PSR sort gate)” value was “high polyreactivity”.
Next, “QVQHVESRGGLVQAGGSLRLSCAASGSIFNPYDMGWYRPATGKDRELVAAIDWSGGSTYYADSVKGRFTISRDNAKNTVYLQMNSLKPEDSAVYYCAAGYGGWAWNHVSYGGDYWGQGTQVTVSS”: “low polyreactivity”; “QVQHVESRGGLVQAGGSLRLSCAASGSIFSANAMGWYRQAPGKVRELVAAITRGGSTNYADSVKGRFTISRDNAKNTVYLQMNSLKPEDTAVYYCNAEPDPYSSGRVRRDYDYWGQGTQVTVSS”: “low polyreactivity”; “QVQHVESRGGLVQAGGSLRLSCAASGSTIGFYAMGWYRQAPGKERELVAGITNGGRTYYADSVKGRFTISRDNAKNTVYLQMISLKPEDTAVYYCIRTPRSKGNYWGQGTQVTVSS”: “high polyreactivity”.
Next, “QVQHVESVGGLVQAGGSLRLSCAPSGSIFWDNAMGWYRQAPGKERELVAAITSSGDTTYYADSVKGRFTISRDNAKNTVYLQMNSLKQEDTAVYYCAKVFGPTDYLTGTFKGDYWGQGTQVTVSS”: “low polyreactivity”; “QVQHVESVVGFVQAGASLRLSCASSVLILAQNTMGWYRQAPGKERELVAAISWRGGNTYYADSVKGRLTISRDNAKNTVYLKMNILKPEDTAVDYCAARRPRRIVDYDYWGQGTQVTVSS”: “high polyreactivity”.
Next, “QVQHVESWRGLVQAGGSLRLSCAASGSTNYPNAMGWSRQAPGKERELVPAITSGGSTYYADSVKGRFTISRDNAKNTVYLPMNSLKPEDTAVYYCAAQRRYHQDTTIGPGNYYYWGQGTQVTVSS”: “low polyreactivity”; “QVQHVESWRGLVQAGGSLRLSCDASGSIIQIYAMGWYRQAPGKVRELVASITWSGGSPYYADSVKGRFTISRDNAKNTVYLQMNSLKPEDTAVFYCATDKLYGRTVRMDYWGQGTQVTVSS”: “low polyreactivity”; “QVQIEDSGGGLVQAGGSLRLSCAASGSTLRGYAMGWYRHAPGKERELVAAISKNGGSTYYADSVKGRFTISRDKAKYTVYLQMNSLKPEDTAVYYCAAVGYYTKRRFGYWGQGTQVTVSS”: “high polyreactivity”.
Regarding “QVQIEESGGALVQEGGSLRLSRAASGRTFYYYAMGWYRQAPGKERELVAGIDFSSGSTYYADSVKGRFTISRDNAKNTVYLQMNSLKPEDTAVYYCAAKWHVRGRGARYRYDYDYWGQGTQVTVSS”, the “polyreactivity (PSR sort gate)” value is given as “low polyreactivity”.
Next, “QVQIVDSGGGLVQAGGRLRLSCAPSGITFVYYAMGWYRQAPGKEREFVASITSNGVSTYYADSVKGRYTISRDNAMNTVYLQMNSLKPEDTAVYYCAADGTYRNYWYDYWGQGTQVTVSS”: “low polyreactivity”; “QVQIVDSGGGLVQAGGSLRLSCAASGRNFGYYAMGWYRQAPGKERELVAAISYSGGSTYYADSVKGRFTISRDMAKNTVYCQMNSLKPEDTAVYYCAAPGRWPQRYGYWGLGTQVTVSS”: “high polyreactivity”.
Next, “QVQIVDSGGGLVQAGGSLRLTCAASAITFSTNALGWNRQAPGKERELVAAITSVTSTYYADSVKGRFTISRDNAKNTVYLLMKSLKTEYTAVYYWAARLSRWPYFYEYNYWGQGTEVTVSS”: “low polyreactivity”.
As to “QVQIVESCGGLVQAGGSLRLICAATGSIFLRNTMGWYRQAPAKQRELVASIDWSGGITYYADSVKGRFTISRDNAKNTVYLQMNSLKQEDTAVYFCNAVFLYPFNVPTMEYWGQGTQVTVSS”, the “polyreactivity (PSR sort gate)” value was “low polyreactivity”.
Next, “QVQIVESGAGLVQAGGSLRLSCAASGIIFPRYAMGWYRQAPGKERELVAAITIGGRTNYGDSVKGRFTISRDNGKNTFYLQMKSLKPEDTAVYYCAAQTFVPYSEYDYWGQGTQVTVSS”: “low polyreactivity”; “QVQIVESGGCLVQAGGSLRLSCAASGRTFWYYTMGWYRQAPGKEREFVAAISYSAGNTYYADSVKGRFTISRDNAKNTVYLQMNSLKPEDTAVNYCAVQRGYRSNAYDYWGQGTQVTVSS”: “high polyreactivity”; “QVQIVESGGCLVQAGGSLRLSWAASGGIFSTNAMGWYRQAPGKERELVAAISRRGGSTYYADSVKGRFTISRDNAKNTGYLQMNSLKPEDTAVYYCNKYLRLFSYGRGYDYWGQGTQVTVSS”: “high polyreactivity”.
Next, “QVQIVESGGGLFQAGGSLRLSCAASGGIFDFYAMGWYRPATGKEWELVAAITRSGSSTFYADSVKGRFTISRDNAKNTVYLQMNILKPEDTAVYYCAAPYSYFAVYYGYIVEYDYWGQGTQVTVSS”: “low polyreactivity”; “QVQIVESGGGLFQAGGSLRLSSAASGNTFDKYAMGWYRQAPGKEREMVAAISSGGRTYYADSVKGRFTISRDNAKNTVYLQMNSLKPEDTAVYYCGKGSAGRGMDSWGQGTQVTVSS”: “low polyreactivity”.
Consider “QVQIVESGGGLIQEGGSLRLSCAASGSTFYYYAMGWYRPAPGKERELVAAIDRDDRTNYADSVKGRFTSSRDNAQNTVYLQMTSLKPEDTAVYYCAAVEIYEYDYWGQGTQVTVSS”, for which the “polyreactivity (PSR sort gate)” value is “low polyreactivity”.
“QVQIVESGGGLLQAGGSLRLSCAASGGTFPVYAMVWYRQAPGKERELVAAISYSGVTTYYADSVKGRFTISRDNAKNTVYLQINSLKPDDTAVFYCNADWRRWYIFSYDYWGQGTQVTVSS”: the “polyreactivity (PSR sort gate)” value is reported as “low polyreactivity”.
Next, “QVQIVESGGGLLQAGGSLRLSCAASGLTFGSYAMGWYRQAPGKERELVAAISRSGGSTYYADSVKGRFTISRDNAKNTVYLQMNSLKPEDTAVYYCNAVNPYYAPTERRVGFDYWGQGTQVTVSS”: “high polyreactivity”; “QVQIVESGGGLVQAAVSLPISCPASGSIFGSYAMGWYRQAPGKERELVAAISKSGGSTYYADSVKGRFTISRDYAKNTVNLQMNSLKPEDTEVYYCAARAFLYAYRAYDYWGQGTQVNVSS”: “high polyreactivity”.
Regarding “QVQIVESGGGLVQAGCSLRLSCAASGFIFRRNAMGWYRQAPGKERELVATIRASGGRTYYADSEKGRFTISRDNAKNTVYLQMNSMKPEDTAVYYCAADTYRDVRDPYYYWGQGTQVTVSS”, the “polyreactivity (PSR sort gate)” value is reported as “high polyreactivity”.
Next, “QVQIVESGGGLVQAGGSHRLSCAASGSTFASNTKGWYTQAPGKERELVATITQSGGTRYYADSVKGRFTISRDNAKYTVYFQMNSLKPEDTAVYDCATDVGYFYTVVGGYDYWGQGTQVTVSA”: “low polyreactivity”.
Next, “QVQIVESGGGLVQAGGSIRLSCAASGYTFVIYAMGSYRPAPGKERELVAAITTIGGRTYYADSVKGRFTISRDNAKNTVYLQMNSLKPEDTAVYYCAADIRSNRLYDGGYWGQGTQVTVSS”: “low polyreactivity”; “QVQIVESGGGLVQAGGSLPLSCAASGSIFDYYVMGWYRQAPGKERELVAAINWSGDGTNYADSVKGRFTISRDNAKNTVYLQMNSLKPEDTAVYYCNADWTSDGFGTRLDYWGQGTQVTVSS”: “low polyreactivity”.
For the sequence “QVQIVESGGGLVQAGGSLRFSCAASGRIFIYNAMGWYRQAPGKERELVAAISRTGGRTYYADSVKGRFTISRDISKNTVYLQMNSLKPEDTAVYYCAARNRGQYYSWGQGTQLTVSS”, the “polyreactivity (PSR sort gate)” value is reported as “high polyreactivity”.
Next, “QVQIVESGGGLVQAGGSLRISCAASGFIFAYNSMGWNRQAPGKERELVAAISRSGGSTRYADSVKGRFPISRDNAKNTVFLQMNSLKPEDTAVYYCAAEYLGSYGYYEYDFWGQGTQVTVSS”: “high polyreactivity”.
Next, “QVQIVESGGGLVQAGGSLRISCAASGIIFYAYAMGWSRQAPGKEREFVAAINNSGGRTYYADSVKGRFTISRDNAKNTVYLQMNSLKPEDTAVYYCAVYSYYRRTYRREMDYWGQGTQVTVSS”: “high polyreactivity”.
Next, “QVQIVESGGGLVQAGGSLRLICAASGFTFTYNAMGWYRQAPWKERELVADIDSDGSTTYADSVKGRFTISRDNAKNTVYLQMNSLKPEDTAVYYCAADYWDYSVWRWYEYWGQGTQVTVSS”: “high polyreactivity”; “QVQIVESGGGLVQAGGSLRLICAASGRIFRYYVMGWYRQAPGKERELVATITSGGSTNYADSVKGRFTISRDNAKNTVYLQMNSLKPEDTAVYYCNRDRYPYYYAYNFWGQGTQVTVSS”: “low polyreactivity”; “QVQIVESGGGLVQAGGSLRLSCAACGRIFTWNVMGWYRQAPGKEREFVAAITYSGGRTRYADSVKGRFTISRDIAKNTVYLQMNSLKPEDTAFYYCAATSRGTDYWGQGTQVTVSS”: “high polyreactivity”.
Consider “QVQIVESGGGLVQAGGSLRLSCAASGFIFRYNVMGWYRQAPAKERELVAANSSSGSRTYYADSVKGRFTISRDNAKNTVYLQMNSLKPEDTAVYYCATQSWVRYGQPEFDYWGHGTQVTVSS”, for which the “polyreactivity (PSR sort gate)” value is “high polyreactivity”.
Next, “QVQIVESGGGLVQAGGSLRLSCAASGFIFTAYAMGWYRPGPGKERELDAAISSSGTRTYYADSVKGRFTISRDYAKNTVYLQMNCLKPEDTAVYYCNKLYLVWNFYSGYDYSGQGTQVTVSS”: “high polyreactivity”.

The values are drawn from the nanobody polyreactivity screen of Harvey et al. (2022).
